By Kd is commonly meant the equilibrium constant for the complex coming apart. A high value points to weaker binding.

Holding throughout (test): ITC; 400 µM TAZ1 or TAZ2 in the syringe injected into 16–30 µM MITF construct in the cell; 20 mM TRIS pH 8, 25 mM NaCl, 5 mM βME, 10 µM ZnCl2; 30 °C; single-binding-site fit; duplicate
Common to all, as to conditions: both partners purified
Background: In ITC the heat of successive injections is recorded.

One experiment deals with T1, MITF_(CTERM) (UniProt O75030-9 289-419).
T1 construct: numbers count on: the MITF-M isoform; 15N-labelled for the NMR titration; also called C-terminal MITF-M; MITF C-terminal region; source: E. coli BL21 (DE3), purified (Ni-NTA, TEV cleavage, Q-Sepharose)
T1 sequence (looked up): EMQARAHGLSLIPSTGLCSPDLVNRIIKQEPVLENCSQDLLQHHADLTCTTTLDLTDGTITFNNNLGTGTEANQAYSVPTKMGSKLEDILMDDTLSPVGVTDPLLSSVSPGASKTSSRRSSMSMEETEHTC

A further experiment deals with T2, MITF_(ΔThr-rich) (UniProt O75030-9 289-419, Δ334–345).
T2 construct: numbers count on: the MITF-M isoform; The methods print Δ334–354; the legend, the results and the canonical numbers (Δ441–452) give Δ334–345; also called Δ334–345; deletion of the threonine-rich region; source: E. coli BL21 (DE3), purified (Ni-NTA, TEV cleavage, Q-Sepharose)
T2 sequence (looked up): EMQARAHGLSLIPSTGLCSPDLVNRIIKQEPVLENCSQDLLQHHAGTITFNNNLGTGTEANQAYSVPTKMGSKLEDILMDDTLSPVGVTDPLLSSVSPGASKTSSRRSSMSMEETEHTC

The target in a further experiment is T3, MITF_(ΔAcidic) (UniProt O75030-9 289-419, Δ372–381).
T3 construct: numbers count on: the MITF-M isoform; also called Δ372–381; deletion of the acidic region; source: E. coli BL21 (DE3), purified (Ni-NTA, TEV cleavage, Q-Sepharose)
T3 sequence (looked up): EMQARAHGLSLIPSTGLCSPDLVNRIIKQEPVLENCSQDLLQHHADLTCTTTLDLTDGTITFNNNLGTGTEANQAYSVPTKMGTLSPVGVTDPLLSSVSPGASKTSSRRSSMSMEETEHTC

The target of a further experiment is T4, MITF_(ΔSer-rich) (UniProt O75030-9 289-419, Δ394–411).
T4 construct: numbers count on: the MITF-M isoform; The methods print Δ372–381 for this variant too; the legend, the results and the canonical numbers (Δ501–518) give Δ394–411; also called Δ394–411; deletion of the serine-rich region; source: E. coli BL21 (DE3), purified (Ni-NTA, TEV cleavage, Q-Sepharose)
T4 sequence (looked up): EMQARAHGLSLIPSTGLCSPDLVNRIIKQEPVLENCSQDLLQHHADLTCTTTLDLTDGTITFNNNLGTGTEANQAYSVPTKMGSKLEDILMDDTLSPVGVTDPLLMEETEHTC

B1: TAZ1 domain of CBP/p300 (domain or fragment)
chain: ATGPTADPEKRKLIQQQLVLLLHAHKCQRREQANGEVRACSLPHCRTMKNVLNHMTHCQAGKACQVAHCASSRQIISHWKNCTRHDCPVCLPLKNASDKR
modifications: three structural Zn2+ ions expected; the paper does not state CBP or p300, species or limits (described in a cited paper); mouse CBP TAZ1 340-439 taken by convention
With B1, the affinity with MITF_(CTERM), expressed as Kd, was 5000 ± 310 nM.

B2: TAZ2 domain of CBP/p300 (domain or fragment)
chain: GDSRRLSIQRCIQSLVHACQCRNANCSLPSCQKMKRVVQHTKGCKRKTNGGCPICKQLIALCCYHAKHCQENKCPVPFCLNI
Turning to B2, the dissociation constant (Kd) in the experiment with MITF_(CTERM) came to 760 ± 50 nM; with MITF_(ΔThr-rich) it was 410 ± 20 nM; with MITF_(ΔAcidic), 7.24 ± 0.7 µM; with MITF_(ΔSer-rich), 2260 ± 90 nM.
